Data reported in the supplement of paper PMC10065799, “High-throughput profiling of sequence recognition by tyrosine kinases and SH2 domains using bacterial peptide display” (eLife, 2023).

These sequences were tested on c-Src (assay: phosphorylation enrichment, bacterial display (enrichment ratio); higher = better substrate or ligand; peptides without Tyr show the background).
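For SH2 binding enrichment of the phosphorylated peptide, bacterial display in this document: peptide library displayed on the E. coli surface as eCPX fusions, selected cells deep-sequenced, score is each peptide's frequency after selection divided by its frequency in the input.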
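For phosphorylation enrichment, bacterial display in this document: 11-residue human phosphosite peptides and single-mutation variants displayed on the E. coli surface, counted by deep sequencing, each peptide's frequency after selection divided by its frequency in the unselected input library; frequency after pTyr selection over input frequency; kinase dosed for 20-30% of maximal phosphorylation in three min.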

| Sequence | phosphorylation enrichment |
| --- | --- |
| KVMANYVFKAG [MAML2_Y513_M514V_YF] | 0.433 |
| WGLCSYYETSK [MAGED2_Y448_R446C] | 0.712 |
| KDIENHIQDGK [RAD50_Y964_Y964H] | 0.446 |
| FHKALYTVRTY [PDE6C_Y266_S270T] | 0.596 |
| RHRSGYVLIAM [EFR3A_Y73] | 0.284 |
| AVNDFYAAKKT [CCDC178_Y422] | 0.429 |
| HSFQCYGQNEA [ENTPD3_Y262_R264Q] | 0.441 |
| HSVVQYVGGVM [FGGY_Y136_L134V] | 0.491 |
| KQINDYVEKGT [SERPINA1_Y184] | 0.478 |
| HNLPIYEGFAL [ACTA1_Y168_V165L_YF] | 9.44 |
| KEDSAYGSQSV [NFKB2_Y868] | 0.502 |
| YSNVLYRPRGA [TMIGD2_Y197] | 0.558 |
| RELGEYALAEY [ALDH1A3_Y492] | 1.14 |
| YTGSTYRVGDT [FN1_Y106_N104S] | 0.48 |
| GHLYAYNWISI [BEST1_Y227_D228N] | 1.32 |
| DYYDLYGGEKK [PTPN11_Y66_F71K] | 3.65 |
| PPSGEYFGQCG [TRIP6_Y275] | 0.771 |

| Sequence | phosphorylation enrichment |
| --- | --- |
| LFLACYFIGGG [UBD_Y161_C162F] | 0.647 |
| IENKLYGTSDP [RET_Y1062_M1064T] | 0.509 |
| REEKNYKLKET [BCLAF1_Y459] | 1.28 |
| LYDPDFMKVIL [CYP4A22_Y104_Y104F] | 0.954 |
| FGLDRYQCDCT [PTGS1_Y54] | 0.422 |
| QMVDMYASSYM [AVPR2_Y124_G122D] | 1.29 |
| EKIANYKEGTY [CLRN1_Y171] | 0.468 |
| HSLHDYKEALM [ADA2_Y337] | 0.522 |
| TQPSPYAVYLF [RPGRIP1_Y823_R827L] | 5.65 |
| FADIAYNYRHA [PAH_Y166_G171A] | 0.503 |
| LREIRYQGGNR [VWF_Y1570_V1565L] | 0.488 |
| VGIMLYGVDSR [PKD1_Y3143] | 0.435 |
| THPFLYLSLEI [MLH1_Y293] | 0.363 |
| RELGEYGLQAY [ALDH2_Y497] | 0.696 |
| VPEANYTSDEE [STK33_Y439_D436E] | 0.614 |
| TKLKDYFIFNK [CCDC42_Y149_A144T_YF] | 0.575 |

Each sequence was assayed against Grb2 SH2 (UniProt P62993) (assay: SH2 binding enrichment of the phosphorylated peptide, bacterial display (enrichment ratio); higher = better substrate or ligand; peptides without Tyr show the background).
Grb2 SH2, sequence (P62993 whole entry, looked up): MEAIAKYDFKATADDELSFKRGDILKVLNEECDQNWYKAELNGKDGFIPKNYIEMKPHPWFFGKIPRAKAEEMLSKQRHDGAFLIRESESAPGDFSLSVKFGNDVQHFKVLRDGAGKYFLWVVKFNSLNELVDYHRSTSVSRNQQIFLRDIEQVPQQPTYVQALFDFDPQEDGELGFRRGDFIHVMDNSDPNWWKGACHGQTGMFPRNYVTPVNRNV

| Sequence | SH2 binding enrichment |
| --- | --- |
| KVMANYVFKAG [MAML2_Y513_M514V_YF] | 1.1 |
| WGLCSYYETSK [MAGED2_Y448_R446C] | 0.765 |
| KDIENHIQDGK [RAD50_Y964_Y964H] | 0.682 |
| FHKALYTVRTY [PDE6C_Y266_S270T] | 0.768 |
| RHRSGYVLIAM [EFR3A_Y73] | 2.09 |
| AVNDFYAAKKT [CCDC178_Y422] | 1.07 |
| HSFQCYGQNEA [ENTPD3_Y262_R264Q] | 0.968 |
| HSVVQYVGGVM [FGGY_Y136_L134V] | 0.885 |
| KQINDYVEKGT [SERPINA1_Y184] | 0.726 |
| HNLPIYEGFAL [ACTA1_Y168_V165L_YF] | 0.837 |
| KEDSAYGSQSV [NFKB2_Y868] | 0.817 |
| YSNVLYRPRGA [TMIGD2_Y197] | 0.907 |
| RELGEYALAEY [ALDH1A3_Y492] | 0.707 |
| YTGSTYRVGDT [FN1_Y106_N104S] | 0.836 |
| GHLYAYNWISI [BEST1_Y227_D228N] | 0.944 |
| DYYDLYGGEKK [PTPN11_Y66_F71K] | 1.01 |
| PPSGEYFGQCG [TRIP6_Y275] | 1.19 |

| Sequence | SH2 binding enrichment |
| --- | --- |
| LFLACYFIGGG [UBD_Y161_C162F] | 0.861 |
| IENKLYGTSDP [RET_Y1062_M1064T] | 1.02 |
| REEKNYKLKET [BCLAF1_Y459] | 1.16 |
| LYDPDFMKVIL [CYP4A22_Y104_Y104F] | 0.785 |
| FGLDRYQCDCT [PTGS1_Y54] | 1.01 |
| QMVDMYASSYM [AVPR2_Y124_G122D] | 0.742 |
| EKIANYKEGTY [CLRN1_Y171] | 0.803 |
| HSLHDYKEALM [ADA2_Y337] | 0.702 |
| TQPSPYAVYLF [RPGRIP1_Y823_R827L] | 1.16 |
| FADIAYNYRHA [PAH_Y166_G171A] | 0.852 |
| LREIRYQGGNR [VWF_Y1570_V1565L] | 0.835 |
| VGIMLYGVDSR [PKD1_Y3143] | 0.888 |
| THPFLYLSLEI [MLH1_Y293] | 1.19 |
| RELGEYGLQAY [ALDH2_Y497] | 0.745 |
| VPEANYTSDEE [STK33_Y439_D436E] | 0.831 |
| TKLKDYFIFNK [CCDC42_Y149_A144T_YF] | 0.773 |

The sequences below were run against SHP2-C SH2 in the same assay as above.

| Sequence | SH2 binding enrichment |
| --- | --- |
| KVMANYVFKAG [MAML2_Y513_M514V_YF] | 0.663 |
| WGLCSYYETSK [MAGED2_Y448_R446C] | 0.526 |
| KDIENHIQDGK [RAD50_Y964_Y964H] | 0.471 |
| FHKALYTVRTY [PDE6C_Y266_S270T] | 0.725 |
| RHRSGYVLIAM [EFR3A_Y73] | 2.72 |
| AVNDFYAAKKT [CCDC178_Y422] | 0.87 |
| HSFQCYGQNEA [ENTPD3_Y262_R264Q] | 0.62 |
| HSVVQYVGGVM [FGGY_Y136_L134V] | 2.89 |
| KQINDYVEKGT [SERPINA1_Y184] | 0.585 |
| HNLPIYEGFAL [ACTA1_Y168_V165L_YF] | 0.721 |
| KEDSAYGSQSV [NFKB2_Y868] | 0.756 |
| YSNVLYRPRGA [TMIGD2_Y197] | 0.683 |
| RELGEYALAEY [ALDH1A3_Y492] | 0.691 |
| YTGSTYRVGDT [FN1_Y106_N104S] | 0.902 |
| GHLYAYNWISI [BEST1_Y227_D228N] | 0.816 |
| DYYDLYGGEKK [PTPN11_Y66_F71K] | 0.665 |
| PPSGEYFGQCG [TRIP6_Y275] | 0.829 |

| Sequence | SH2 binding enrichment |
| --- | --- |
| LFLACYFIGGG [UBD_Y161_C162F] | 0.855 |
| IENKLYGTSDP [RET_Y1062_M1064T] | 0.604 |
| REEKNYKLKET [BCLAF1_Y459] | 0.956 |
| LYDPDFMKVIL [CYP4A22_Y104_Y104F] | 0.634 |
| FGLDRYQCDCT [PTGS1_Y54] | 0.849 |
| QMVDMYASSYM [AVPR2_Y124_G122D] | 0.602 |
| EKIANYKEGTY [CLRN1_Y171] | 0.641 |
| HSLHDYKEALM [ADA2_Y337] | 0.426 |
| TQPSPYAVYLF [RPGRIP1_Y823_R827L] | 1.17 |
| FADIAYNYRHA [PAH_Y166_G171A] | 0.681 |
| LREIRYQGGNR [VWF_Y1570_V1565L] | 0.504 |
| VGIMLYGVDSR [PKD1_Y3143] | 0.63 |
| THPFLYLSLEI [MLH1_Y293] | 0.74 |
| RELGEYGLQAY [ALDH2_Y497] | 0.749 |
| VPEANYTSDEE [STK33_Y439_D436E] | 0.579 |
| TKLKDYFIFNK [CCDC42_Y149_A144T_YF] | 0.595 |

These sequences were tested against c-Src SH2 in the same assay as above.

| Sequence | SH2 binding enrichment |
| --- | --- |
| KVMANYVFKAG [MAML2_Y513_M514V_YF] | 0.614 |
| WGLCSYYETSK [MAGED2_Y448_R446C] | 0.586 |
| KDIENHIQDGK [RAD50_Y964_Y964H] | 0.41 |
| FHKALYTVRTY [PDE6C_Y266_S270T] | 0.481 |
| RHRSGYVLIAM [EFR3A_Y73] | 1.73 |
| AVNDFYAAKKT [CCDC178_Y422] | 0.457 |
| HSFQCYGQNEA [ENTPD3_Y262_R264Q] | 0.596 |
| HSVVQYVGGVM [FGGY_Y136_L134V] | 0.465 |
| KQINDYVEKGT [SERPINA1_Y184] | 0.528 |
| HNLPIYEGFAL [ACTA1_Y168_V165L_YF] | 0.579 |
| KEDSAYGSQSV [NFKB2_Y868] | 0.558 |
| YSNVLYRPRGA [TMIGD2_Y197] | 1.05 |
| RELGEYALAEY [ALDH1A3_Y492] | 1.18 |
| YTGSTYRVGDT [FN1_Y106_N104S] | 0.538 |
| GHLYAYNWISI [BEST1_Y227_D228N] | 0.738 |
| DYYDLYGGEKK [PTPN11_Y66_F71K] | 0.838 |
| PPSGEYFGQCG [TRIP6_Y275] | 0.791 |

| Sequence | SH2 binding enrichment |
| --- | --- |
| LFLACYFIGGG [UBD_Y161_C162F] | 0.793 |
| IENKLYGTSDP [RET_Y1062_M1064T] | 0.465 |
| REEKNYKLKET [BCLAF1_Y459] | 0.627 |
| LYDPDFMKVIL [CYP4A22_Y104_Y104F] | 0.467 |
| FGLDRYQCDCT [PTGS1_Y54] | 0.942 |
| QMVDMYASSYM [AVPR2_Y124_G122D] | 1.33 |
| EKIANYKEGTY [CLRN1_Y171] | 0.433 |
| HSLHDYKEALM [ADA2_Y337] | 0.418 |
| TQPSPYAVYLF [RPGRIP1_Y823_R827L] | 1.16 |
| FADIAYNYRHA [PAH_Y166_G171A] | 0.549 |
| LREIRYQGGNR [VWF_Y1570_V1565L] | 0.454 |
| VGIMLYGVDSR [PKD1_Y3143] | 0.489 |
| THPFLYLSLEI [MLH1_Y293] | 0.682 |
| RELGEYGLQAY [ALDH2_Y497] | 0.451 |
| VPEANYTSDEE [STK33_Y439_D436E] | 0.46 |
| TKLKDYFIFNK [CCDC42_Y149_A144T_YF] | 0.724 |
